Test results published in US8894997B2.
pKd: −log10 of the molar value.

Experiments:
[1] = target: 1918 HA displayed on virus-like particles, reconstituted 1918 virus or transfected mammalian cells (influenza A/South Carolina/1/18 (H1N1) virus)
[2] = target: HA of A/Mexico/4108/2009 virus (influenza A/Mexico/4108/2009 (H1N1) virus)
[3] = target: Recombinant A/South Carolina/1/1918 virus HA (influenza A/South Carolina/1/18 (H1N1) virus)
[4] = target: HA of influenza A/Weiss/43 (H1N1) virus (influenza A/Weiss/43 (H1N1) virus)
[5] = target: HA of influenza A/USSR/92/77 (H1N1) virus (influenza A/USSR/92/77 (H1N1) virus)
[6] = target: 1918 HA displayed on virus-like particles, reconstituted 1918 virus or transfected mammalian cells (influenza A/South Carolina/1/18 (H1N1) virus); remark: listed apart in the source
[7] = target: HA of influenza A/Swine/Iowa/15/30 (H1N1) virus (influenza A/Swine/Iowa/15/30 (H1N1) virus)

Substance | HAI, reciprocal titer of serum (reciprocal titer) [1] | HAI, reciprocal titer of serum (reciprocal titer) [2] | HAI, specific activity [1] | HAI, specific activity [2] | Neut Ab, specific activity [2] | pKd [3] | koff [3] | kon [3] | specific neutralizing activity [4] | Specific HAI activity [5] | specific neutralizing activity [5] | Specific HAI activity [6] | Specific HAI activity [7]
Normal mouse serum (polyclonal serum or antibody) | < 10 | < 10 | – | – | – | – | – | – | – | – | – | – | –
mAb 1F1 (antibody) | – | – | 0.04 µg/mL | > 5 µg/mL | > 5 µg/mL | 8.27 | 0.00017 s⁻¹ | 31000 M⁻¹ s⁻¹ | 1.8 µg/mL | 0.16 µg/mL | 0.88 µg/mL | 0.08 µg/mL | 0.04 µg/mL
